How the values were obtained:
MEF5/N9 cells = experiment: Transient cotransfection of ER(T2) fusion expression vectors with β-galactosidase reporter; β-galactosidase activity in lysates; type: cell-based, mouse; conditions: 10^−8 M 4-OH-tamoxifen, 48 h; for relative β-galactosidase activity in presence of 4-OH-tamoxifen compared to the negative control: relative to Cre-ER(T2) without 4-OH-tamoxifen
Method: The transformed mouse embryonic fibroblast cell line MEF5/N9 (Schwenk et al., Nucleic Acids Research, 26(6) 1427-1432 (1998)) was obtained from Michel Aguet (University of Zurich, Switzerland). The cells were grown in DMEM medium (Life Technologies) supplemented with 2 mM […] and 10% fetal calf serum at 37° C., 5% CO2 in humid atmosphere and passaged upon trypsinization. One day before transient transfection 4·10^4 cells were plated into a 24-well plate (Falcon). For the transient transfection of MEF5/N9 cells with plasmids, each well received into 500 μl of medium a total amount of 150 ng or 200 ng supercoiled plasmid DNA complexed before with the FuGene6 transfection reagent (Roche Diagnostics GmbH, Mannheim, Germany) according to the manufacturer's protocol. Each 150 ng or 200 ng DNA preparation (FIG. 2 sample 1 to 11) contained 100 ng of the β-Galactosidase expression vector pCMV-β-gal-pA (pCMVβ, Clontech, FIG. 1G, SEQ ID NO: 56), and 100 ng of the fusion ER(T2) expression vectors to be tested (FIG. 2 sample 3-7, 10-11) and the control plasmids (FIG. 2 sample 1-3), except for the samples with the plasmids pCAG-Casp9full-ER(T2)-bpA (FIG. 2 sample 8) and pCAG-Casp9trunc-ER(T2)-bpA (FIG. 2 sample 9), respectively, that received 50 ng of the test vector. For each sample to be tested four individual wells were transfected. Five hours after the addition of the DNA preparations each well received additional 500 μl of growth medium. The following day, the medium of two wells of each sample was replaced by fresh medium. The other two wells received medium containing 10^−8 M 4-hydroxy-tamoxifen (Sigma). 48 hours after induction with 4-OH-tamoxifen, the cells of each well were lysed with 200 μl lysate reagent supplemented with protease inhibitors (Roche Diagnostics GmbH). The lysates were centrifuged and 50 μl were used to determine the β-galactosidase activities using the β-galactosidase reporter gene assay (Roche Diagnostics GmbH) according to the manufacturer's protocol in a microplate luminometer (Berthold Detection Systems GmbH). The mean value and standard deviation of the samples was calculated from the β-galactosidase RLU values obtained from the two transfected wells of each sample. The relative β-galactosidase activity was obtained by comparison to the negative control (pCAG-Cre-ER(T2)-bpA) without 4-OH-tamoxifen.
To investigate the cell death effect of the different ER(T2) fusion constructs quantitatively, we performed transient cotransfections of the ER(T2) fusion protein expression vectors together with a fixed amount of a reporter plasmid coding for β-galactosidase in MEF5/N9 fibroblast cells. Transfected cells were treated 12 hours after transfection with 4-OH-tamoxifen at a concentration of 10^−8 M. Following 48 hours of 4-OH-tamoxifen induction, the cells from the various samples were lysed and the activity of β-galactosidase in the lysates was determined by a chemiluminescence assay and expressed in “Relative Light Units” (RLU) (FIG. 2). As positive controls for 4-OH-tamoxifen-inducible cell death, we prepared samples transfected with the constructs pCAG-HAFas-ER(T2) or pCAG-MFas-ER(T2) together with the reporter plasmid and treatment with 4-OH-tamoxifen. As negative control for this assay served samples which received the reporter plasmid together with the expression vector pCAG-Cre-ER(T2) and that were treated with 4-OH-tamoxifen.
To determine the relative activity of the tested ER(T2) fusion constructs inducing apoptosis in the presence of 4-OH-tamoxifen, the RLU values of β-galactosidase activity were divided individually for each sample by the RLU value obtained from the sample which received the plasmid pCAG-Cre-ER(T2) but was not treated with 4-OH-tamoxifen (defined as negative control). The relative activity of the tested Caspase- or bax-ER(T2) fusion proteins was then compared to the negative control for 4-OH-tamoxifen-dependent cell death defined as an activity of 1.

Pac2 cells = experiment: Transient cotransfection with β-galactosidase reporter into Pac2 cells; type: cell-based, zebrafish; conditions: 10^−8 M 4-OH-tamoxifen, Cre-ER(T2) as reference, range given jointly for HeLa and Pac2
Method: (§1) Results are shown as mean values of triplicate samples with standard deviation. (b) Transient cotransfection of a β-galactosidase reporter with a Cre-ER(T2), myrCasp8-ER(T2), or Casp9-ER(T2) expression plasmid into murine M5/N9 (black columns), human HeLa (grey columns) or zebrafish Pac2 (open columns) cells. 12 h following transfection, cells were cultured for 36 h with 4-OH-tamoxifen at 10^−8 M and the activity of β-galactosidase in cell lysates was determined. Values obtained from transfections of the Cre-ER(T2) vector were defined as reference. Results are shown as mean values of triplicate samples with standard deviation.
PAC2 zebrafish fibroblasts were grown in Leibowitz's L15—with L-Glutamine medium supplemented with 1% Non-essential Amino Acids, 1% Penicillin/Streptomycin and 10% fetal calf serum (all Gibco) at 28° C. 3×10^6 Cells were transiently transfected with the plasmids CMVβ together with CAG-CreER(T2), CAG-myrCasp8ER(T2) or CAG-Casp9ER(T2) (500 ng each) using nanofectin transfection reagent (PAA). 24 hrs after transfection the medium was replaced and conditioned with 10^−8 M 4-OH-tamoxifen. Before lysis, the cells were incubated for another 24 hrs at 28°. […]

HeLa cells = experiment: Transient cotransfection with β-galactosidase reporter into HeLa cells; type: cell-based, human; conditions: 10^−8 M 4-OH-tamoxifen, Cre-ER(T2) as reference, range given jointly for HeLa and Pac2
Method: as §1
Transient transfections into M5/N9 and HeLa cells were performed with FuGene transfection reagent (Roche) following the manufacturer's instructions. Briefly, semiconfluent cultures in a 24-well plate were transfected in triplicate with 112 ng of the β-galactosidase expression vector CMVβ(Invitrogen) and the same amount of pCAG-Cre-ER(T2), pCAG-Casp8-ER(T2) or pCAG-Casp9-ER(T2) plasmid DNA. After 12 h 4-OH-tamoxifen was added at a concentration of 10^−8 M and the cultures were lysed at 48 h. Cell lysis and the measurement of β-galactosidase activity by chemiluminescence were performed with the β-galactosidase reporter gene assay (Roche) using a Centro LB960 plate luminometer (Berthold). […]

| Molecule | relative β-galactosidase activity in presence of 4-OH-tamoxifen compared to the negative control (MEF5/N9 cells) [%] | reduction of β-Galactosidase activity in presence of 4-OHT (Pac2 cells) | reduction of β-Galactosidase activity in presence of 4-OHT (HeLa cells) | 4-OH-tamoxifen-dependent activity / toxicity in transient transfection (in words) (MEF5/N9 cells) |
| --- | --- | --- | --- | --- |
| Casp8-ER(T2): fusion of murine Caspase-8 domain to the ER(T2) ligand binding domain, SEQ ID NO: 20 (protein, fusion protein Casp8-ER(T2)) MSESRTSDKVYQMKNKPRGYCLIINNHDFSKAREDITQLRKMKDRKGTDCDKEALSKTFKELHFEIVSYDDCTANEIHEILEGYQSADHKNKDCFICCILSHGDKGVVYGTDGKEASIYDLTSYFTGSKCPSLSGKPKIFFIQACQGSNFQKGVPDEAGFEQQNHTLEVDSSSHKNYIPDEADFLLGMATVKNCVSYRDPVNGTWYIQSLCQSLRERCPQGDDILSILTGVNYDVSNKDDRRNKGKQMPQPTFTLRKKLFFPPLEPSAGDMRAANLWPSPLMIKRSKKNSLALSLTADQMVSALLDAEPPILYSEYDPTRPFSEASMMGLLTNLADRELVHMINWAKRVPGFVDLTLHDQVHLLECAWLEILMIGLVWRSMEHPVKLLFAPNLLLDRNQGKCVEGMVEIFDMLLATSSRFRMMNLQGEEFVCLKSIILLNSGVYTFLSSTLKSLEEKDHIHRVLDKITDTLIHLMAKAGLTLQQQHQRLAQLLLILSHIRHMSNKGMEHLYSMKCKNVVPLYDLLLEAADAHRLHAPTSRGGASVEETDQSHLATAGSTSSHSLQKYYITGEAEGFPATA | 3 | – | – | – |
| myrCasp8-ER(T2): murine Caspase-8 domain with N-terminal myristoylation motif fused to ER(T2) ligand binding domain, SEQ ID NO: 23 (protein, N-terminal myristoylation motif; fusion protein myrCasp8-ER(T2)) MGSSKSKPKDPSQRSESRTSDKVYQMKNKPRGYCLIINNHDFSKAREDITQLRKMKDRKGTDCDKEALSKTFKELHFEIVSYDDCTANEIHEILEGYQSADHKNKDCFICCILSHGDKGVVYGTDGKEASIYDLTSYFTGSKCPSLSGKPKIFFIQACQGSNFQKGVPDEAGFEQQNHTLEVDSSSHKNYIPDEADFLLGMATVKNCVSYRDPVNGTWYIQSLCQSLRERCPQGDDILSILTGVNYDVSNKDDRRNKGKQMPQPTFTLRKKLFFPPLEPSAGDMRAANLWPSPLMIKRSKKNSLALSLTADQMVSALLDAEPPILYSEYDPTRPFSEASMMGLLTNLADRELVHMINWAKRVPGFVDLTLHDQVHLLECAWLEILMIGLVWRSMEHPVKLLFAPNLLLDRNQGKCVEGMVEIFDMLLATSSRFRMMNLQGEEFVCLKSIILLNSGVYTFLSSTLKSLEEKDHIHRVLDKITDTLIHLMAKAGLTLQQQHQRLAQLLLILSHIRHMSNKGMEHLYSMKCKNVVPLYDLLLEAADAHRLHAPTSRGGASVEETDQSHLATAGSTSSHSLQKYYITGEAEGFPATA | 0.1 | 95-99% | 95-99% | – |
| Cre-ER(T2): fusion of Cre recombinase to ER(T2) ligand binding domain, negative control, SEQ ID NO: 5 (protein, fusion protein Cre-ER(T2)) MSNLLTVHQNLPALPVDATSDEVRKNLMDMFRDRQAFSEHTWKMLLSVCRSWAAWCKLNNRKWFPAEPEDVRDYLLYLQARGLAVKTIQQHLGQLNMLHRRSGLPRPSDSNAVSLVMRRIRKENVDAGERAKQALAFERTDFDQVRSLMENSDRCQDIRNLAFLGIAYNTLLRIAEIARIRVKDISRTDGGRMLIHIGRTKTLVSTAGVEKALSLGVTKLVERWISVSGVADDPNNYLFCRVRKNGVAAPSATSQLSTRALEGIFEATHRLIYGAKDDSGQRYLAWSGHSARVGAARDMARAGVSIPEIMQAGGWTNVNIVMNYIRNLDSETGAMVRLLEDGDLEPSAGDMRAANLWPSPLMIKRSKKNSLALSLTADQMVSALLDAEPPILYSEYDPTRPFSEASMMGLLTNLADRELVHMINWAKRVPGFVDLTLHDQVHLLECAWLEILMIGLVWRSMEHPVKLLFAPNLLLDRNQGKCVEGMVEIFDMLLATSSRFRMMNLQGEEFVCLKSIILLNSGVYTFLSSTLKSLEEKDHIHRVLDKITDTLIHLMAKAGLTLQQQHQRLAQLLLILSHIRHMSNKGMEHLYSMKCKNVVPLYDLLLEAADAHRLHAPTSRGGASVEETDQSHLATAGSTSSHSLQKYYITGEAEGFPATA | – | – | – | Neither the expression of the negative control Cre-ER(T2) alone nor the combined treatment with 4-OH-tamoxifen at the concentration of 10^−8 M displayed toxic side effects |

Reference: patent publication US8530168B2, “Fusion protein comprising a Caspase domain and a nuclear hormone receptor binding domain and methods and uses thereof” (Helmholtz Zentrum Munich Deutsches Forschungszentrum fuer …, priority 2007, dated 2013)
